PMC9709975, “Chromatin-associated microprocessor assembly is regulated by the U1 snRNP auxiliary protein PRP40” (The Plant Cell, 2022)

Target: T1, PRE-MRNA PROCESSING PROTEIN 40b (AtPRP40b), recombinant (Arabidopsis thaliana, UniProt F4JCC1 1-992)
T1 construct: AtPRP40b, Arabidopsis thaliana U1 snRNP auxiliary protein; Made as MBP-6xHis-AtPRP40b from a pMal-derived plasmid; MBP cut off with TEV protease; Detected with anti-PRP40b; source: E. coli BL21-CodonPlus(DE3)-RIL, purified (Ni-NTA, TEV cleavage, second Ni-NTA, size exclusion chromatography); not shown: MBP, N-terminal, cleaved
T1 sequence (looked up): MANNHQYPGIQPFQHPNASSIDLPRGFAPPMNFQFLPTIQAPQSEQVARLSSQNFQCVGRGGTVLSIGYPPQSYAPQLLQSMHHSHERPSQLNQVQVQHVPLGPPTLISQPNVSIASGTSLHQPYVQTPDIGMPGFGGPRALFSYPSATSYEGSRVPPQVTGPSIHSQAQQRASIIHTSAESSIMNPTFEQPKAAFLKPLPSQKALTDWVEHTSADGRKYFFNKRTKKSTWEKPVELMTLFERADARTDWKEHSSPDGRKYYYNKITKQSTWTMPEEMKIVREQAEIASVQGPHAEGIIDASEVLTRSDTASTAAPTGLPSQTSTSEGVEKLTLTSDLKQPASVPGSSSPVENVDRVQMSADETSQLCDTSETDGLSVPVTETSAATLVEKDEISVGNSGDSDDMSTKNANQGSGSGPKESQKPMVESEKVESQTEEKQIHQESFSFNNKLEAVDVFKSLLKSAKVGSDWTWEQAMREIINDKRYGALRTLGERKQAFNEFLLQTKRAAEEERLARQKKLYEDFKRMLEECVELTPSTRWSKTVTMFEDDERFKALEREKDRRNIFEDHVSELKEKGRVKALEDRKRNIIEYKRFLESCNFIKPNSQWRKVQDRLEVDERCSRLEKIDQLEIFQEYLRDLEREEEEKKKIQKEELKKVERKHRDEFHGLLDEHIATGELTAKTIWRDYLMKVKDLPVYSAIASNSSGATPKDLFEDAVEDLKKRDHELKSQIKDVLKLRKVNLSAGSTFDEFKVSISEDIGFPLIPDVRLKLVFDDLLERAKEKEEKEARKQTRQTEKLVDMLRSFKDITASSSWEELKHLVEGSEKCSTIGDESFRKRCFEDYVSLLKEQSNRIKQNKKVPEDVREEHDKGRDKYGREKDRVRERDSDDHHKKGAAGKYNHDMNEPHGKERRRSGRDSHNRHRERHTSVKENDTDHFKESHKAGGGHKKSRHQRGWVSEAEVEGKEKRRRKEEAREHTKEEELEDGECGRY
Test: pull-down; 2 µg biotinylated CTD peptide on streptavidin paramagnetic particles; 2 µg of SE variant and AtPRP40b together; 1.5 h at 4°C in PBS pH 8.3, 5% glycerol, 1 mM DTT, 0.1% NP-40; five washes, immunoblot
Details: both partners purified

- binding result: binds
B1: SERRATE (SE), full length, recombinant (natural protein, Arabidopsis thaliana, UniProt Q9ZVD0 1-720, looked up)
chain: MADVNLPPSDSVDNRLPEKSTSSSPPPPPPSSSLPQQEQEQDQQQLPLRRERDSRERRDERDIERPPPNRRERDRSPLPPPRRDYKRRPSLSPPPPYRDRRHSPPQRRSPPQKRYRRDDNGYDGRRGSPRGGYGPPDRRFGYDHGGGYDREMGGRPGYGDERPHGRFMGRYQDWEGGRGGYGDASNSGNPQRDGLMSYKQFIQELEDDILPSEAERRYQEYKSEYITTQKRAFFNTHKEEDWLKNKYHPTNLLSVIERRNDLAQKVAKDFLLDLQSGTLDLGPAVTALNKSGRTSEPNSEDEAAGVGKRKRHGMGGAKENELLSAAPKAPSFTSDPKRILTDVEQTQALVRKLDSEKKIEENVLQGSETEKSGREKLHSGSTGPVVIIRGLTSVKGLEGVELLDTLVTYLWRVHGLDYYGKVETNEAKGLRHVRAEGKVSDAKGDENESKFDSHWQERLKGQDPLEVMAAKEKIDAAATEALDPHVRKIRDEKYGWKYGCGAKGCTKLFHAAEFVYKHLKLKHTELVTELTTKVREELYFQNYMNDPNAPGGQPATQQSGPRDRPIRRKPSMENRLRDDRGGRRERDGRANGNDRNDRSEDQQRGDNDGGNPGEVGYDAFGGQGGVHVPPFLSDINPPPMLMPVPGAGPLGPFVPAPPEVAMQMFRDPSGPNPPFEGSGRGGPAPFLLSPAFRQDPRRLRSYQDLDAPEEEVTVIDYRSL
notes: SERRATE, Arabidopsis thaliana, core component of the plant microprocessor; full length (720 residues by the printed deletion Δ681-720); Made as MBP-6xHis-SE from a pMal-derived plasmid; MBP cut off with TEV protease; source: E. coli BL21-CodonPlus(DE3)-RIL, purified (Ni-NTA, TEV cleavage, second Ni-NTA, size exclusion chromatography); not shown: MBP, N-terminal, cleaved
